# In patent US20240116985A1, “STAPLED PEPTIDES AND METHODS THEREOF” (priority 2020, published 2024):
# Starred links: 1 amine or outer side, 2 acyl side, 3 side chain; linkers in the order of their positions; H or OH if unused. Positions of bridges follow the written chain, without caps; N, C: chain ends. Non-standard residues stand in square brackets, D forms with d. Primed or numbered codes have the meaning given here. PyrS2″ = (S)-3-amino-1-((pent-4-en-1-yloxy)carbonyl)pyrrolidine-3-carboxylic acid (stapling residue), C=CCCCOC(=O)N1CC[C@@](N[*:1])(C(=O)[*:2])C1; B5(4) = 2,2-bis(4-pentenyl)glycine = 2-amino-2-(pent-4-en-1-yl)hept-6-enoic acid (stitching residue), C=CCCCC(CCCC=C)(N[*:1])C(=O)[*:2]; B5(5) = 2,2-bis(4-pentenyl)glycine, 2-amino-2-(pent-4-en-1-yl)hept-6-enoic acid (stitching residue), C=CCCCC(CCCC=C)(N[*:1])C(=O)[*:2]; PyrS2 = (S)-3-amino-1-((pent-4-en-1-yloxy)carbonyl)pyrrolidine-3-carboxylic acid, C=CCCCOC(=O)N1CC[C@@](N[*:1])(C(=O)[*:2])C1; (NMe2)GlnR(3) = [NMe2]GlnR, N5,N5-dimethyl-L-glutamine, CN(C)C(=O)CC[C@H](N[*:1])C(=O)[*:2]; B5(3) = 2,2-bis(4-pentenyl)glycine (stitching residue), C=CCCCC(CCCC=C)(N[*:1])C(=O)[*:2]; Me2Asn = listed as N4-methyl-L-asparagine, CNC(=O)C[C@H](N[*:1])C(=O)[*:2]; Phe(3-CF3) = N[C@@H](Cc1cccc(C(F)(F)F)c1)C(=O)O; Phe(3-COOH) = N[C@@H](Cc1cccc(C(=O)O)c1)C(=O)O; 2F3MeF = Cc1cccc(C[C@H](N[*:1])C(=O)[*:2])c1F; Phe(2-CF3) = N[C@@H](Cc1ccccc1C(F)(F)F)C(=O)O; Phe(2-Cl) = N[C@@H](Cc1ccccc1Cl)C(=O)O; Bta = N[C@@H](Cc1csc2ccccc12)C(=O)O; Lys(iPr) = CC(C)NCCCC[C@H](N)C(=O)O; αAllylPro = C=CC[C@@]1(C(=O)O)CCCN1; tBuAla = CC(C)(C)C[C@H](N)C(=O)O; 3Thi = N[C@@H](Cc1ccsc1)C(=O)O; Cha = N[C@@H](CC1CCCCC1)C(=O)O; S8 = C=CCCCCCC[C@](C)(N)C(=O)O; hSer = N[C@@H](CCO)C(=O)O; 34ClF = not defined here; Nle = CCCC[C@H](N)C(=O)O; Aib = CC(C)(N)C(=O)O
# Target: full-length beta-Catenin (Uniprot ID P35222) (Homo sapiens (Human)) (UniProt P35222)
# Assay: fluorescence polarization competition, 5FAM-TCF4 10-53 probe on full-length beta-catenin
# Target sequence in this assay (P35222 2-781 limits assumed): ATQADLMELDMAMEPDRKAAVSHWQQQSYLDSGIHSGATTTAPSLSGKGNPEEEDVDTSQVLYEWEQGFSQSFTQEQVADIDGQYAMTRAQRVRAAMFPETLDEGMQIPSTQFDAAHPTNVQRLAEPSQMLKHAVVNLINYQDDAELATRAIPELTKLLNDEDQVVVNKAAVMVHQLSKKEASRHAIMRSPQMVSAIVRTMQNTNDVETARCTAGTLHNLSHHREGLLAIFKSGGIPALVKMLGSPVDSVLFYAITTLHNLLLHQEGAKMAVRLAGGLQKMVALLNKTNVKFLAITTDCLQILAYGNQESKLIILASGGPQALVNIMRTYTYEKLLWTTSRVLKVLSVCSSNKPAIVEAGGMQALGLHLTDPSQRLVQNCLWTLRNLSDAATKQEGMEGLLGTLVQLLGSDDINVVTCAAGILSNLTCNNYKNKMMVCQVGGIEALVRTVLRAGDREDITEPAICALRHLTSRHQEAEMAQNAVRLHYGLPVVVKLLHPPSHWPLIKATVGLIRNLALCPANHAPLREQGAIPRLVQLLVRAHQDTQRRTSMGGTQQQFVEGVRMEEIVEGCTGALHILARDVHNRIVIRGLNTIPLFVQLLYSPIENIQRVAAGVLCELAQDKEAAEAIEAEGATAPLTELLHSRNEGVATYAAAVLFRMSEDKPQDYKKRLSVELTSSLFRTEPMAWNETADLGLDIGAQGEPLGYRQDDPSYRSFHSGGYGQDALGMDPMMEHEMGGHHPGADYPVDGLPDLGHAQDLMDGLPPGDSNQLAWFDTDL
row,EC50,Binder
1,70 nM,"Ac-[αAllylPro]D[Cha][B5(4)]DDLLFS[PyrS2″][Phe(2-Cl)][Bta]Q-NH2 (staple 1-4, 4-11) [I-1149]"
2,64 nM,"Ac-[αAllylPro]D[Cha][B5(5)]DDAAF[Cha][PyrS2″][Phe(2-Cl)][Bta]S-NH2 (staple 1-4, 4-11) [I-1113]"

# Target: full-length beta-Catenin (Uniprot ID P35222) (Homo sapiens (Human)) (UniProt P35222)
# Assay: fluorescence polarization competition vs 5FAM-TCF4(10-53) on full-length beta-catenin
# Target sequence in this assay (P35222 2-781 limits assumed): as above
row,IC50,Binder
1,70 nM,"Ac-[αAllylPro]D[Cha][B5(4)]DDLLFS[PyrS2″][Phe(2-Cl)][Bta]Q-NH2 (staple 1-4, 4-11) [I-1149]"

# Target: full-length beta-Catenin (Uniprot ID P35222) (Homo sapiens (Human)) (UniProt P35222)
# Assay: fluorescence polarization competition; full-length beta-catenin with 5FAM-TCF4(10-53) probe as competitor
# Target sequence in this assay (P35222 whole entry): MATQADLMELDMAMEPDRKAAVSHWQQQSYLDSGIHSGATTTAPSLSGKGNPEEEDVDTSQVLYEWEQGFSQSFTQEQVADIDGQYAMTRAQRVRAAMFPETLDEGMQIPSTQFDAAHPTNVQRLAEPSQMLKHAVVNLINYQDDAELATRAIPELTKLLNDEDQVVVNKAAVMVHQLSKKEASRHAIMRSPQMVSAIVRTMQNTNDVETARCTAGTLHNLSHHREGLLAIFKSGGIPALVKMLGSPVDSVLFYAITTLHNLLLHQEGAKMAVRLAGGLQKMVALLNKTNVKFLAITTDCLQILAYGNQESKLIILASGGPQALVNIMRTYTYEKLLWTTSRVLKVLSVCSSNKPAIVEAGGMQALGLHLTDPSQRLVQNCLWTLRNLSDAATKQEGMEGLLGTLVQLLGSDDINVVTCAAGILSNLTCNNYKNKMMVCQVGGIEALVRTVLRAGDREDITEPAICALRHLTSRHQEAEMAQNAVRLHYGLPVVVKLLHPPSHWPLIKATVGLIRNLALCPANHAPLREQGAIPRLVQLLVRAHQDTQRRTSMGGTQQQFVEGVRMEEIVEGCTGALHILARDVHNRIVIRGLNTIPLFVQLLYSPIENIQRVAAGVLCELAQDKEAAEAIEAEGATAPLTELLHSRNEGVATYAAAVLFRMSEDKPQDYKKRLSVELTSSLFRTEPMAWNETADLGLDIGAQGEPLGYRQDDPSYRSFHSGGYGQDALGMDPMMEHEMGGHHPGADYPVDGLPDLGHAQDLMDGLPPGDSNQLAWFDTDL
row,IC50,Binder
1,119 nM,"Ac-[αAllylPro]DL[B5(4)]DEAAFN[S8]F[Bta]-NH2 (staple 1-4, 4-11; also: later-eluting staple isomer) [I-625]"
2,273 nM,"Ac-[αAllylPro]DL[B5(4)]DEAAFN[S8]F[Bta]-NH2 (staple 1-4, 4-11; also: earlier-eluting staple isomer) [I-624]"

# Target: full-length beta-Catenin (Uniprot ID P35222) (Homo sapiens (Human)) (UniProt P35222)
# Assay: fluorescence polarization competition; competitor 5FAM-TCF4(10-53) probe on full-length beta-catenin
# Target sequence in this assay (P35222 whole entry): as above
row,Binder,IC50
1,"Ac-[αAllylPro]N[Cha][B5(4)]DQ[Lys(iPr)]AFN[PyrS2″]F[Bta]H-NH2 (staple 1-4, 4-11) [I-2109]",136 nM
2,"Ac-[αAllylPro]D[tBuAla][B5(5)]D[Phe(3-COOH)]A[dA]FL[PyrS2″][2F3MeF][Bta]A-NH2 (staple 1-4, 4-11; also: later eluting HPLC isomer) [I-2099]",325 nM
3,"Ac-[αAllylPro]N[Cha][B5(4)]DQ[Lys(iPr)]AF[Lys(iPr)][PyrS2″]F[Bta][hSer]-NH2 (staple 1-4, 4-11) [I-2102]",273 nM

# Continued, values first:
row,IC50,Binder
1,260 nM,"Ac-[αAllylPro]D[tBuAla][B5(4)]D[Phe(3-COOH)]A[dA]FL[PyrS2″][2F3MeF][Bta]A-NH2 (staple 1-4, 4-11; also: earlier-eluting HPLC isomer composition) [I-2098]"
2,424 nM,"Ac-[αAllylPro]D[tBuAla][B5(3)]D[Phe(3-COOH)]A[dA]FL[PyrS2″][2F3MeF][Bta][dA]-NH2 (staple 1-4, 4-11) [I-2101]"
3,88 nM,"Ac-[αAllylPro]N[Cha][B5(4)]DQ[Lys(iPr)]AFN[PyrS2″]F[Bta]K-NH2 (staple 1-4, 4-11) [I-2110]"

# Target: full-length beta-Catenin (Uniprot ID P35222) (Homo sapiens (Human)) (UniProt P35222)
# Assay: fluorescence polarization competition; peptide titrated against 10 nM full-length beta-catenin + 10 nM 5FAM-TCF4(10-53) probe
# Target sequence in this assay (P35222 whole entry): as above
row,EC50,Binder
1,119 nM,"Ac-[αAllylPro]DL[B5(4)]DEAAFN[S8]F[Bta]-NH2 (staple 1-4, 4-11; also: later-eluting staple isomer) [I-625]"
2,273 nM,"Ac-[αAllylPro]DL[B5(4)]DEAAFN[S8]F[Bta]-NH2 (staple 1-4, 4-11; also: earlier-eluting staple isomer) [I-624]"

# Target: full-length beta-Catenin (Uniprot ID P35222) (Homo sapiens (Human)) (UniProt P35222)
# Assay: fluorescence polarization competition; displacement of 5FAM-TCF4(10-53) from full-length beta-catenin
# Target sequence in this assay (P35222 whole entry): as above
row,IC50,Binder
1,64 nM,"Ac-[αAllylPro]D[Cha][B5(5)]DDAAF[Cha][PyrS2″][Phe(2-Cl)][Bta]S-NH2 (staple 1-4, 4-11) [I-1113]"

# Target: full-length beta-Catenin (Uniprot ID P35222) (Homo sapiens (Human)) (UniProt P35222)
# Assay: fluorescence polarization competition; full-length beta-catenin + 5FAM-TCF4(10-53) probe
# Target sequence in this assay (P35222 whole entry): as above
row,EC50,Binder
1,198 nM,Ac-[αAllylPro]D[tBuAla][B5(3)]DTAA[Phe(3-CF3)]T[PyrS2″]F[Bta]S-NH2 (staple 1-4; staple 4-11 (inferred); not fully specified; printed as Ac-PL3-Asp-Npg-B5-Asp-Thr-Ala-Ala-3F3MeF-Thr-PyrS2-Phe-BztA-Ser-NH2) [I-1268]

# Target: full-length beta-Catenin (Uniprot ID P35222) (Homo sapiens (Human)) (UniProt P35222)
# Assay: fluorescence polarization competition; 10 nM full-length beta-catenin, 10 nM 5FAM-TCF4(10-53) probe
row,Binder,IC50
1,"Ac-[αAllylPro]D[tBuAla][B5(4)]D[Phe(3-COOH)][Aib]AF[Nle][PyrS2″][3Thi][Bta][(NMe2)GlnR(3)]-NH2 (staple 1-4, 4-11) [I-2551]",8 nM
2,"Ac-[αAllylPro]D[tBuAla][B5(4)]D[Phe(3-COOH)]SAFL[PyrS2″][3Thi][Bta][tBuAla]-NH2 (staple 1-4, 4-11) [I-2195]",62 nM
3,"Ac-[αAllylPro]D[tBuAla][B5(4)]D[Phe(3-COOH)][Nle]AFL[PyrS2″][3Thi][Bta]V-NH2 (staple 1-4, 4-11) [I-2189]",83 nM
4,"Ac-[αAllylPro]N[tBuAla][B5(5)]DQ[Lys(iPr)]AFL[PyrS2″]F[Bta][Cha]-NH2 (staple 1-4, 4-11) [I-1652]",10000 nM
5,"Ac-[αAllylPro]D[tBuAla][B5(4)]D[Phe(3-COOH)]AAFF[PyrS2″][Phe(2-CF3)][Bta][MorphGln]-NH2 (staple 1-4, 4-11) [I-2543]",37 nM
6,"Ac-[αAllylPro]N[tBuAla][B5(5)]DQ[Lys(iPr)]AF[Cha][PyrS2]F[Bta]Q-NH2 (staple 1-4, 4-11) [I-1650]",1680 nM
7,"Ac-[αAllylPro]D[tBuAla][B5(4)]D[Phe(3-COOH)][Me2Asn]AFL[PyrS2″][3Thi][Bta][tBuAla]-NH2 (staple 1-4, 4-11) [I-2196]",41 nM
8,"Ac-[αAllylPro]D[tBuAla][B5(4)]D[Phe(3-COOH)]QAFL[PyrS2″][3Thi][Bta][tBuAla]-NH2 (staple 1-4, 4-11) [I-2192]",22 nM
9,"Ac-[αAllylPro]N[tBuAla][B5(4)]DQ[Lys(iPr)]AFL[PyrS2]F[Bta]K-NH2 (staple 1-4, 4-11) [I-1643]",822 nM
10,"Ac-[αAllylPro]N[tBuAla][B5(4)]DQ[Lys(iPr)]AFL[PyrS2]F[Bta][Lys(iPr)]-NH2 (staple 1-4, 4-11) [I-1645]",940 nM
11,"Ac-[αAllylPro]D[tBuAla][B5(4)]D[Phe(3-COOH)][Me2Asn]AFL[PyrS2″][3Thi][Bta]V-NH2 (staple 1-4, 4-11) [I-2191]",16 nM

# Other lines, results leading:
row,IC50,Binder
1,3970 nM,"Ac-[αAllylPro]N[tBuAla][B5(5)]DQ[Lys(iPr)]AFL[PyrS2″][Cha][Bta]Q-NH2 (staple 1-4, 4-11) [I-1651]"
2,640 nM,"Ac-[αAllylPro]N[tBuAla][B5(4)]DQ[Lys(iPr)]AFL[PyrS2]F[Bta][hSer]-NH2 (staple 1-4, 4-11) [I-1646]"
3,21 nM,"Ac-[αAllylPro]D[tBuAla][B5(4)]D[Phe(3-COOH)]AAFL[PyrS2″][Phe(2-CF3)][Bta][MorphGln]-NH2 (staple 1-4, 4-11) [I-2541]"
4,164 nM,"Ac-[αAllylPro]D[tBuAla][B5(4)]D[Phe(3-COOH)][Nle]AFL[PyrS2″][3Thi][Bta][tBuAla]-NH2 (staple 1-4, 4-11) [I-2193]"
5,2480 nM,"Ac-[αAllylPro]N[tBuAla][B5(4)]DQ[Lys(iPr)]A[Cha]L[PyrS2]F[Bta]Q-NH2 (staple 1-4, 4-11) [I-1649]"
6,2130 nM,"Ac-[αAllylPro]N[tBuAla][B5(5)]DQ[Lys(iPr)]AF[Lys(iPr)][PyrS2″]F[Bta][Lys(iPr)]-NH2 (staple 1-4, 4-11) [I-1654]"
7,12 nM,"Ac-[αAllylPro]D[tBuAla][B5(4)]D[Phe(3-COOH)][Aib]AF[Nle][PyrS2″][3Thi][Bta][(NHEt)GlnR]-NH2 (staple 1-4, 4-11) [I-2552]"
8,21 nM,"Ac-[αAllylPro]D[tBuAla][B5(4)]D[Phe(3-COOH)]AAFF[PyrS2″][Phe(2-CF3)][Bta][Me2Gln]-NH2 (staple 1-4, 4-11) [I-2534]"
9,5 nM,"Ac-[αAllylPro]D[tBuAla][B5(4)]DDAAFN[PyrS2″][3Thi][34ClF]Q-NH2 (staple 1-4, 4-11; reading uncertain; also: printed as Ac-PL3-Asp-Npg-B5-Asp-Asp-Ala-Ala-Phe-Asn-PyrS2-3Thi-34C1F-Gln-NH2) [I-2182]"
10,91 nM,"Ac-[αAllylPro]D[tBuAla][B5(4)]D[Phe(3-COOH)][Aib]AFL[PyrS2″][3Thi][Bta][tBuAla]-NH2 (staple 1-4, 4-11) [I-2194]"
11,10000 nM,"Ac-[αAllylPro]N[tBuAla][B5(4)]DQ[Lys(iPr)]AFL[PyrS2]F[Bta][tBuAla]-NH2 (staple 1-4, 4-11) [I-1644]"
12,903 nM,"Ac-[αAllylPro]N[tBuAla][B5(5)]DQ[Lys(iPr)]AF[Lys(iPr)][PyrS2″]F[Bta]Q-NH2 (staple 1-4, 4-11) [I-1653]"
